Target: fusion protein encoded by plasmid pIcoFLAGXa (amino terminal FLAG epitope, Factor Xa cleavage sequence Ile-Glu-Gly-Arg-Gly, thioredoxin with the V5 epitope at the active site, GPI linkage), displayed on COS7 cells (E. coli) [thioredoxin: P0AA25]
Assay: cell-based or functional assay

Factor Xa (enzyme) was tested, and the cells selected on streptavidin magnetic beads with biotin anti-FLAG antibody after incubation with Factor Xa was 0 % of cells.

Reference: patent US20050255464A1, “Methods for the identification of peptidyl compounds interacting with extracellular target molecules” (priority 2001, published 2005)
